This note sets out measurements from patent US6528625.

Experiment [1] has as its target FLAG-tagged human CCR5 expressed on L1.2 murine pre-B lymphoma cells (human) (UniProt P51681). As to the kind of experiment: cell-based or functional assay.
Experiment [2] addresses human CCR5 (untagged; endogenous on human leukocytes, parent of the CCR5/CCR2b chimeras, on U87-CD4-CCR5 cells) (human) (UniProt P51681). As to the kind of experiment: cell-based or functional assay.
For experiment [3] the target is unchanged. As to the kind of experiment: inhibition of ^125I-MIP-1α binding to activated T cells (CD3 blasts) by 10 µg/ml mAb.
Experiment [4] shares this target. As to the kind of experiment: inhibition of ^125I-RANTES binding to activated T cells (CD3 blasts) by 10 µg/ml mAb.

murine monoclonal antibody 2D7 displayed a mAb concentration giving complete inhibition of chemotaxis of CCR5 L1.2 cells to RANTES, MIP-1α and MIP-1β in experiment [1] of 20 µg/mL. In experiment [2], the percent inhibition of RANTES and MIP-1α chemotactic responses of T cell lines lay within 60 to 80%; the percent inhibition of chemotaxis of activated, IL-2 maintained T cells to MIP-1α was 60 to 80%. In addition, the percent inhibition of ^125I-MIP-1α binding in experiment [3] turned out to be 85%. In addition, in experiment [4], the percent inhibition of ^125I-RANTES binding turned out to be 95%.
